Data published in article PMC5328894, “Characterization of a Bacillus thuringiensis chitinase that binds to cellulose and chitin” (AMB Express, 2017).

Substrate: CC(=O)N[C@H]1[C@H](Oc2ccc([N+](=O)[O-])cc2)O[C@H](CO)[C@@H](O[C@@H]2O[C@H](CO)[C@@H](O)[C@H](O)[C@H]2NC(C)=O)[C@@H]1O
Test: initial-rate hydrolysis, Michaelis-Menten fit
Assay type: biochemical, Bacillus thuringiensis
Details: 50 mM MES-NaOH, pH 6.0, 50 °C, 0.05-0.8 mM substrate
Description: initial-rate hydrolysis, Michaelis-Menten fit on BthChi74

B1: BthChi74 (Bacillus thuringiensis serovar israelensis ATCC 35646) (protein)
chain: MAMRSQKFTLLLLSLLLFLPLFLTNFITPNLALADSPKQSQKIVGYFPSWGVYGRNYQVADIDASKLTHLNYAFADICWKGKHGNPSTHPDNPNKQTWNCKESGVPLQNKEVPNGTLVLGEPWADVTKSYPGSGTTWEDCDKYARCGNFGELKRLKAKYPHLKTIISVGGWTWSNRFSDMAADEKTRKVFAESTVAFLRAYGFDGVDLDWEYPGVETIPGGSYRPEDKQNFTLLLQDVRNALNKAGAEDGKQYLLTIASGASQRYADHTELKKISQILDWINIMTYDFHGGWEATSNHNAALYKDPNDPAANTNFYVDGAIDVYTNEGVPVDKLVLGVPFYGRGWKSCGKENNGQYQPCKPGSDGKLASKGTWDDYSTGDTGVYDYGDLTANYVNKNGFVRYWNDTAKVPYLYNATTGTFISYDDNESMKYKTDYIKTKGLSGAMFWELSGDCRTSPKYSCSGPKLLDTLVKELLGGPINQKDTEPPTNVKNIIVTNKTSSSVQLSWTASTDNVGVTEYEITAGEEKWSATTNSITIKNLKPNTEYTFSVIAKDASGNKSHPTALTVKTDEANTTPPDGNGTATFSVTSNWGSGYNFSIIIKNNGTIPIKNWKLEFDYSGNLTQVWDSKISSKTNNHYVITNAGWNGEIPPGGSITIGGAGTGNPAELLNAVISEN
notes: GH18 catalytic domain + FNIII + CBM2; pET21d(+), E. coli BL21(DE3); vector-derived additions at N- and C-termini, C-terminal His6 designed but probably lost by processing; expected 76 kDa, 74 kDa on SDS-PAGE
  Km: 159 ± 0.5 µM
  kcat: 1.5 ± 0.02 s⁻¹
  kcat/Km: 10000 M⁻¹ s⁻¹
